Experimental data from patent publication US20140179593A1 (published 2014).
Starred links: 1 amine or outer side, 2 acyl side, 3 side chain; linkers in the order of their positions; H or OH if unused. Positions of bridges follow the written chain, without caps; N, C: chain ends. Non-standard residues stand in square brackets, D forms with d. *: point of attachment. αMeNva(5-ylidene) = C[C@@](CCC=[*:3])(N[*:1])C(=O)[*:2]; S8 = C=CCCCCCC[C@](C)(N)C(=O)O; SeMet = C[Se]CC[C@H](N)C(=O)O; S5 = C=CCCC[C@](C)(N)C(=O)O; Nle = CCCC[C@H](N)C(=O)O; For = O=C*

Legend:
[1] = biological target: T1, hDcn1^P (potentiating neddylation / PONY domain of human Dcn1, DCUN1D1) (Homo sapiens, UniProt Q96GG9 62-259); test: ITC, peptide titrated into Dcn PONY domain
T1 construct: also called DCUN1D1^P; SCCRO PONY domain
Procedure: (§1) Protein samples were buffer matched by desalting over a NAP-5 column (GE Healthcare) into 50 mM Hepes, 125 mM NaCl, 1 mM BME, pH 7.0 (ITC buffer). Peptides were dissolved by weight to a final concentration of 10 mM in ITC buffer and diluted further in ITC buffer as required for the experiments. […] The peptide ligands (4 mM) were constantly injected (1.5 μl). The interval time between each injection was 3 minutes and the duration of each injection was 3 seconds. […] Peptide ligands (250 μM) were constantly injected (2.5 μl). The interval time between each injection was three minutes and the duration of each injection was 5 seconds. […] The interval time between each injection was 3 minutes and the duration of each injection was 5 seconds. Obtained spectra were evaluated using Origin (V 7.0) to determine heats of binding and Kd values.

[2] = biological target: hDcn2^P (PONY domain of human DCUN1D2) (Homo sapiens, UniProt Q6PH85 62-259); test: ITC, peptide titrated into Dcn PONY domain
Procedure: as §1

[3] = biological target: T1, hDcn1^P (potentiating neddylation / …); test: ITC, two-site fit, first value
Procedure: as §1

[4] = biological target: T2, yE1 for yNedd8 (Ula1-Uba3) (Saccharomyces cerevisiae, UniProt Q12059 1-462, limits assumed); test: ITC, peptide titrated into yE1
T2 construct: Heterodimeric E1 expressed in E. coli as described in earlier publications
T2 sequence 1: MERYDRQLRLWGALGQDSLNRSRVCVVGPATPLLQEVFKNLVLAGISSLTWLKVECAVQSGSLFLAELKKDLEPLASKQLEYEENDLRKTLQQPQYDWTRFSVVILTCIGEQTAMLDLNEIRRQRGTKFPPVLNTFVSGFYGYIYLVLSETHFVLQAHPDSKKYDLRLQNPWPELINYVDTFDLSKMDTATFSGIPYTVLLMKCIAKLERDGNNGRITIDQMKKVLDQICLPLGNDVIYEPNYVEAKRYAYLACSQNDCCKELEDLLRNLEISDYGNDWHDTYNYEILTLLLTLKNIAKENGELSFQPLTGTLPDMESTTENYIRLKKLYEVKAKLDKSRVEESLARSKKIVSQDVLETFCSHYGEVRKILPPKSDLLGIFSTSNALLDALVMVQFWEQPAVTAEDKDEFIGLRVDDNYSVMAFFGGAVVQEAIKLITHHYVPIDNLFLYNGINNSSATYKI
T2 sequence 2: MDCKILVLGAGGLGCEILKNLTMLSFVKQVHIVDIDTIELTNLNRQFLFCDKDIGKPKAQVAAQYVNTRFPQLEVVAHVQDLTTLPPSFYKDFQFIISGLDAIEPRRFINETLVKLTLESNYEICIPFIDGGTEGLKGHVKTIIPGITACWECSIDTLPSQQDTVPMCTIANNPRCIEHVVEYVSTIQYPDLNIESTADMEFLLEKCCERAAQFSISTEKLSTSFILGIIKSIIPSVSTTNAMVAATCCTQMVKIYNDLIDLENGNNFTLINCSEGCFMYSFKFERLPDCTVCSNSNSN
Procedure: (§2) To gain insights into mechanistic roles of Ubc12 N-terminal acetylation, isothermal titration calorimetry (ITC) was used to quantify interactions with peptides corresponding to the N-termini of yeast or human Ubc12.
as §1

[5] = biological target: T3, yDcn1^P (potentiating neddylation / PONY domain of Saccharomyces cerevisiae Dcn1) (Saccharomyces cerevisiae, UniProt Q12395 70-269); test: ITC, peptide titrated into yDcn1^P
T3 construct: NEDD8 co-E3; Expressed in E. coli
T3 sequence: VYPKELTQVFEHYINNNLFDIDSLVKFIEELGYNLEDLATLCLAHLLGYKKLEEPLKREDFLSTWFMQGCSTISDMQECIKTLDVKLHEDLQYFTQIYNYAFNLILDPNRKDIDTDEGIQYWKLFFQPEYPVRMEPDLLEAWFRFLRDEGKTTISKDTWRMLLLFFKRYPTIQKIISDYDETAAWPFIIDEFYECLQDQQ
Procedure: as §2, §1

[6] = biological target: T4, hDcn3^P (PONY domain of human DCUN1D3) (Homo sapiens, UniProt Q8IWE4 86-304); test: ITC, peptide titrated into Dcn PONY domain
T4 sequence: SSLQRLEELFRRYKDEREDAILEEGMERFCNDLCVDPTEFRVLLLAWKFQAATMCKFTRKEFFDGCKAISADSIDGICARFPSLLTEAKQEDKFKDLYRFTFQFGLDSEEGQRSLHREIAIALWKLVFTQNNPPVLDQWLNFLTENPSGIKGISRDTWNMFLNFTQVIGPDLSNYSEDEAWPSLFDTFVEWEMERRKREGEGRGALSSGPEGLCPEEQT
Procedure: as §1

T1 sequence (Q96GG9 62-259): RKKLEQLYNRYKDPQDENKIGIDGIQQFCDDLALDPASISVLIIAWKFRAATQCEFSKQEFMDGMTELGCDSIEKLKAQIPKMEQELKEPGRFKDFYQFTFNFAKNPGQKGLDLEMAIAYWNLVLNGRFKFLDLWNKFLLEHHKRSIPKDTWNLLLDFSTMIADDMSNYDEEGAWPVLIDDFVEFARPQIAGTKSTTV
Sequence of hDcn2^P (PONY domain of human DCUN1D2) (Q6PH85 62-259 limits assumed): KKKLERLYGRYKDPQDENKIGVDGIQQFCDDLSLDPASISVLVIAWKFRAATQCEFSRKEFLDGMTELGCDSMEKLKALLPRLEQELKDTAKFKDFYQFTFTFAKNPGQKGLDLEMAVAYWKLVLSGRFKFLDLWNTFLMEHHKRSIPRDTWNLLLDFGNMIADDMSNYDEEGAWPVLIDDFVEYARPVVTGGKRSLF

B1: yUbc12^Ac1-12 (NorLeu) 5, 9 (peptide)
peptide: Ac-[Nle]LKL[S5]QLQ[S5]KKQ-NH2
modifications: staple 5-9
SMILES: CCCC[C@H](NC(C)=O)C(=O)N[C@@H](CC(C)C)C(=O)N[C@@H](CCCCN)C(=O)N[C@@H](CC(C)C)C(=O)N[C@@]1(C)CCCC=CCCC[C@@](C)(C(=O)N[C@@H](CCCCN)C(=O)N[C@@H](CCCCN)C(=O)N[C@@H](CCC(N)=O)C(N)=O)NC(=O)[C@H](CCC(N)=O)NC(=O)[C@H](CC(C)C)NC(=O)[C@H](CCC(N)=O)NC1=O
notes: Stapled synthetic peptide
Kd [1]: 418 nM | Kd [2]: 515 nM

B2: hUbc12^Ac1-12 (Met) 5, 9 (peptide)
peptide: Ac-MIKL[S5]SLK[S5]QKK-NH2
modifications: staple 5-9
notes: also called Acetyl-hUbc12^1-12(5:9Staple)
Kd [1]: 153 nM

B3: hUbc12^Ac1-12 (Met) Oct:But 6, 10 (peptide)
peptide: Ac-MIKLF[S8]LKQ[αMeNva(5-ylidene)]KK-NH2
modifications: staple 6-10
notes: Stapled synthetic peptide; by the label the octenyl- and butenyl-alanine residues stand in the reverse order of the But:Oct peptide
Kd [1]: 129 nM

Ac-MIK(Ac)LFSLKQQKKEEESAGGTKGSSKK-NH2 (Synthetic peptide) [hUbc12^Ac1-Ac3-26]
Kd [1]: 4600 nM

XIKLFSLKQQKK (N-terminal acetyl; norleucine at position 1 in place of Met; C-terminal amide, Synthetic peptide) [hUbc12^Ac1-12 (NorLeu)]
Kd [1]: 5600 nM

B4: hUbc12^Ac1-12 (NorLeu) 5, 9 (peptide)
peptide: Ac-[Nle]IKL[S5]SLK[S5]QKK-NH2
modifications: staple 5-9
SMILES: CCCC[C@H](NC(C)=O)C(=O)N[C@H](C(=O)N[C@@H](CCCCN)C(=O)N[C@@H](CC(C)C)C(=O)N[C@@]1(C)CCCC=CCCC[C@@](C)(C(=O)N[C@@H](CCC(N)=O)C(=O)N[C@@H](CCCCN)C(=O)N[C@@H](CCCCN)C(N)=O)NC(=O)[C@H](CCCCN)NC(=O)[C@H](CC(C)C)NC(=O)[C@H](CO)NC1=O)[C@@H](C)CC
notes: Stapled synthetic peptide
Kd [1]: 440 nM

B5: hUbc12^Ac1-12 (Met) RR 6, 10 (peptide)
peptide: Ac-MIKLF[(R)‑2‑(4-pentenyl)alanine]LKQ[(R)‑2‑(4-pentenyl)alanine]KK-NH2
modifications: staple 6-10
notes: Stapled synthetic peptide; 'RR' is not explained in the text
Kd [3]: 340 nM

B6: yUbc12^Ac1-12 (NorLeu) (peptide)
peptide: Ac-[Nle]LKLRQLQKKKQ-NH2
SMILES: CCCC[C@H](NC(C)=O)C(=O)N[C@@H](CC(C)C)C(=O)N[C@@H](CCCCN)C(=O)N[C@@H](CC(C)C)C(=O)N[C@@H](CCCNC(=N)N)C(=O)N[C@@H](CCC(N)=O)C(=O)N[C@@H](CC(C)C)C(=O)N[C@@H](CCC(N)=O)C(=O)N[C@@H](CCCCN)C(=O)N[C@@H](CCCCN)C(=O)N[C@@H](CCCCN)C(=O)N[C@@H](CCC(N)=O)C(N)=O
Kd [1]: 628 nM | Kd [2]: 793 nM

Ac-MIKLKSLKEQKK-NH2 (bridge 5-9; also: K5-E9 staple, chemistry not given here, Stapled synthetic peptide) [hUbc12^Ac1-12 (Met) KE 5, 9]
Kd [1]: 1060 nM

Ac-LKLRQLQKKKQKENENSSSIQPN-NH2 (Synthetic peptide lacking Met1) [Acetyl-yUbc12^2-24 peptide]
Kd [4]: 1580 nM | N (stoichiometry) [4]: 0.92 | ΔH [4]: -9.62 kcal/mol | ΔS [4]: -7.21 cal/mol/deg | ΔH [5]: 3.76 kcal/mol | ΔS [5]: 33.4 cal/mol/deg

B7: hUbc12^Formyl-1-26 (peptide)
peptide: For-MIKLFSLKQQKKEEESAGGTKGSSKK-NH2
SMILES: CC[C@H](C)[C@H](NC(=O)[C@H](CCSC)NC=O)C(=O)N[C@@H](CCCCN)C(=O)N[C@@H](CC(C)C)C(=O)N[C@@H](Cc1ccccc1)C(=O)N[C@@H](CO)C(=O)N[C@@H](CC(C)C)C(=O)N[C@@H](CCCCN)C(=O)N[C@@H](CCC(N)=O)C(=O)N[C@@H](CCC(N)=O)C(=O)N[C@@H](CCCCN)C(=O)N[C@@H](CCCCN)C(=O)N[C@@H](CCC(=O)O)C(=O)N[C@@H](CCC(=O)O)C(=O)N[C@@H](CCC(=O)O)C(=O)N[C@@H](CO)C(=O)N[C@@H](C)C(=O)NCC(=O)NCC(=O)N[C@H](C(=O)N[C@@H](CCCCN)C(=O)NCC(=O)N[C@@H](CO)C(=O)N[C@@H](CO)C(=O)N[C@@H](CCCCN)C(=O)N[C@@H](CCCCN)C(N)=O)[C@@H](C)O
notes: Synthetic peptide; also called Formyl-hUbc12^1-26
Kd [1]: 9700 nM

B8: hUbe2f^Ac1-25 (peptide)
peptide: Ac-MLTLASKLKRDDGLKGSRTAATASD-NH2
notes: Synthetic peptide of the N-terminus of human Ube2f; also called Acetyl-hUbe2f^1-25
Kd [6]: 2000 nM

B9: Acetyl-yUbc12^1-24 peptide (peptide)
peptide: Ac-MLKLRQLQKKKQKENENSSSIQPN-NH2
notes: Synthetic peptide; also called yUbc12^Ac1-24
Kd [4]: 16 nM | N (stoichiometry) [4]: 0.99 | ΔH [4]: -11.3 kcal/mol | ΔS [4]: -3.8 cal/mol/deg | Kd [5]: 444 nM | ΔH [5]: 4.15 kcal/mol | ΔS [5]: 43.6 cal/mol/deg

Ac-[SeMet]IKL[S5]SLK[S5]QKK-NH2 (staple 5-9, Stapled synthetic peptide) [hUbc12^Ac1-12 (SeMet) 5, 9]
Kd [1]: 182 nM

Ac-MIKLFKLKQEKK-NH2 (bridge 6-10; also: K6-E10 staple, chemistry not given here, Stapled synthetic peptide) [hUbc12^Ac1-12 (Met) KE 6, 10]
Kd [1]: 483 nM
